Literature values as cited in publication PMC3079778.

How the values were obtained:
[1] = molecular target: CYP1A2 (Oryctolagus cuniculus) (UniProt P00187); assay: FRET
[2] = molecular target: CYP2B4 (Oryctolagus cuniculus) (UniProt P00178); assay: FRET
Sequence of UniProt P00178 (P00178 whole entry): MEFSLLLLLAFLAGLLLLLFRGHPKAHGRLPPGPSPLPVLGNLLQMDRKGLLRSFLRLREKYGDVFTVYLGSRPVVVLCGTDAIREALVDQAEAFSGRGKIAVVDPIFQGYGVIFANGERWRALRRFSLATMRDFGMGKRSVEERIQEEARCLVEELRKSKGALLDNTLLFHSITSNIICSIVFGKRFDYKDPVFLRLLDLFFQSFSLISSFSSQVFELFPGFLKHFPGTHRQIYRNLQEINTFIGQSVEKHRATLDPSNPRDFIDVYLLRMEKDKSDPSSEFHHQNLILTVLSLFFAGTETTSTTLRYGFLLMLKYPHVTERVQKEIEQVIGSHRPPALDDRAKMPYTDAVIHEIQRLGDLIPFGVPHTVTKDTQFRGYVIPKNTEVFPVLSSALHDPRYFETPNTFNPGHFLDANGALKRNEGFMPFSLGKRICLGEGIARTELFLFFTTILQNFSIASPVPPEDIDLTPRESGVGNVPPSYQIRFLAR

Sequence of UniProt P00187 (P00187 2-516): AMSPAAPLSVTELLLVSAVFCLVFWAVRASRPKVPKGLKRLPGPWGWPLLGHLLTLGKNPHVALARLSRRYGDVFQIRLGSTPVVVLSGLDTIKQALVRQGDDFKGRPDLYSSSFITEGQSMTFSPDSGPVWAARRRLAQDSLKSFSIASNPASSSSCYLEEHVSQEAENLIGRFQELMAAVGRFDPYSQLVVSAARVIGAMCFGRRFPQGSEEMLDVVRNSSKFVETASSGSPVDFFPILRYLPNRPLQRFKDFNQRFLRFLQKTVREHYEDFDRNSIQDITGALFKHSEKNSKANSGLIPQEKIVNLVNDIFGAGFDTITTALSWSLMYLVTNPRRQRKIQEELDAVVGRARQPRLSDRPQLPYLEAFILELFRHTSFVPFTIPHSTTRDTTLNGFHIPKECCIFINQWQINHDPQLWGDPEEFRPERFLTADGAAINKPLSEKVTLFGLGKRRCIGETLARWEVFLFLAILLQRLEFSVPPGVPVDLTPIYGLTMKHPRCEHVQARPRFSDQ

Kd [1]: 40 nM
Kd [2]: 40 nM
Substance: CPR (from UniProt P00389)
